Laboratory results reported in paper PMC6551275 (Structure (London, England : 1993), 2019).

How the values were obtained:
SEC = molecular target: the molecule itself; assay: SEC
Ubiquitin = Ubiquitin (UniProt P0CG48 1-76); assay: NMR titration
NMR titration = molecular target: the molecule itself; assay: NMR titration
AUC = molecular target: the molecule itself; assay: AUC

B1: UBQLN2 450–624 P506A (domain or fragment)
chain: RAMQALMQIQQGLQTLATEAPGLIPSFTPGVGVGVLGTAIGPVGPVTPIGPIGPIVAFTPIGPIGPIGPTGPAAPPGSTGSGGPTGPTVSSAAPSETTSPTSESGPNQQFIQQMVQALAGANAPQLPNPEVRFQQQLEQLNAMGFLNREANLQALIATGGDINAAIERLLGSQPSW
B1: binds (SEC).

B2: UBQLN2 450–624 (domain or fragment)
chain: RAMQALMQIQQGLQTLATEAPGLIPSFTPGVGVGVLGTAIGPVGPVTPIGPIGPIVPFTPIGPIGPIGPTGPAAPPGSTGSGGPTGPTVSSAAPSETTSPTSESGPNQQFIQQMVQALAGANAPQLPNPEVRFQQQLEQLNAMGFLNREANLQALIATGGDINAAIERLLGSQPSW
B2: binds (Ubiquitin).

B3: UBQLN2 450–624 A488T (domain or fragment)
chain: RAMQALMQIQQGLQTLATEAPGLIPSFTPGVGVGVLGTTIGPVGPVTPIGPIGPIVPFTPIGPIGPIGPTGPAAPPGSTGSGGPTGPTVSSAAPSETTSPTSESGPNQQFIQQMVQALAGANAPQLPNPEVRFQQQLEQLNAMGFLNREANLQALIATGGDINAAIERLLGSQPSW
B3: binds (SEC).

B4: UBQLN2 450–624 P506S (domain or fragment)
chain: RAMQALMQIQQGLQTLATEAPGLIPSFTPGVGVGVLGTAIGPVGPVTPIGPIGPIVSFTPIGPIGPIGPTGPAAPPGSTGSGGPTGPTVSSAAPSETTSPTSESGPNQQFIQQMVQALAGANAPQLPNPEVRFQQQLEQLNAMGFLNREANLQALIATGGDINAAIERLLGSQPSW
B4: binds (SEC).

B5: UBQLN2 450–624 P500S (domain or fragment)
chain: RAMQALMQIQQGLQTLATEAPGLIPSFTPGVGVGVLGTAIGPVGPVTPIGSIGPIVPFTPIGPIGPIGPTGPAAPPGSTGSGGPTGPTVSSAAPSETTSPTSESGPNQQFIQQMVQALAGANAPQLPNPEVRFQQQLEQLNAMGFLNREANLQALIATGGDINAAIERLLGSQPSW
B5: binds (NMR titration).

B6: UBQLN2 450–624 P497S (domain or fragment)
chain: RAMQALMQIQQGLQTLATEAPGLIPSFTPGVGVGVLGTAIGPVGPVTSIGPIGPIVPFTPIGPIGPIGPTGPAAPPGSTGSGGPTGPTVSSAAPSETTSPTSESGPNQQFIQQMVQALAGANAPQLPNPEVRFQQQLEQLNAMGFLNREANLQALIATGGDINAAIERLLGSQPSW
B6: binds (AUC).

B7: UBQLN2 450–624 T487I (domain or fragment)
chain: RAMQALMQIQQGLQTLATEAPGLIPSFTPGVGVGVLGIAIGPVGPVTPIGPIGPIVPFTPIGPIGPIGPTGPAAPPGSTGSGGPTGPTVSSAAPSETTSPTSESGPNQQFIQQMVQALAGANAPQLPNPEVRFQQQLEQLNAMGFLNREANLQALIATGGDINAAIERLLGSQPSW
B7: binds (AUC).

B8: UBQLN2 450–624 P509S (domain or fragment)
chain: RAMQALMQIQQGLQTLATEAPGLIPSFTPGVGVGVLGTAIGPVGPVTPIGPIGPIVPFTSIGPIGPIGPTGPAAPPGSTGSGGPTGPTVSSAAPSETTSPTSESGPNQQFIQQMVQALAGANAPQLPNPEVRFQQQLEQLNAMGFLNREANLQALIATGGDINAAIERLLGSQPSW
B8: binds (NMR titration).

B9: UBQLN2 450–624 P506T (domain or fragment)
chain: RAMQALMQIQQGLQTLATEAPGLIPSFTPGVGVGVLGTAIGPVGPVTPIGPIGPIVTFTPIGPIGPIGPTGPAAPPGSTGSGGPTGPTVSSAAPSETTSPTSESGPNQQFIQQMVQALAGANAPQLPNPEVRFQQQLEQLNAMGFLNREANLQALIATGGDINAAIERLLGSQPSW
B9: binds (SEC).

B10: UBQLN2 450–624 P497L (domain or fragment)
chain: RAMQALMQIQQGLQTLATEAPGLIPSFTPGVGVGVLGTAIGPVGPVTLIGPIGPIVPFTPIGPIGPIGPTGPAAPPGSTGSGGPTGPTVSSAAPSETTSPTSESGPNQQFIQQMVQALAGANAPQLPNPEVRFQQQLEQLNAMGFLNREANLQALIATGGDINAAIERLLGSQPSW
B10: binds (AUC).

B11: UBQLN2 450–624 P497H (domain or fragment)
chain: RAMQALMQIQQGLQTLATEAPGLIPSFTPGVGVGVLGTAIGPVGPVTHIGPIGPIVPFTPIGPIGPIGPTGPAAPPGSTGSGGPTGPTVSSAAPSETTSPTSESGPNQQFIQQMVQALAGANAPQLPNPEVRFQQQLEQLNAMGFLNREANLQALIATGGDINAAIERLLGSQPSW
B11: binds (SEC).
